{"source": "patent US20080058276A1", "about": "“ALZHEIMER'S DISEASE THERAPEUTICS BASED ON PIN-1 CATALYZED CONFORMATIONAL CHANGES IN PHOSPHORYLATED AMYLOID PRECURSOR PROTEIN” (CORNELL RESEARCH FOUNDATION, INC., priority 2006, published 2008)", "key": {"Pin1 WW domain": {"target": "T1, Pin1 WW domain (Homo sapiens, UniProt Q13526)", "T1 construct": "made in house; host or cells: bacteria", "T1 sequence (Q13526 5-39 limits assumed)": "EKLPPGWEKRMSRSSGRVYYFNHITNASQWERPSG", "experiment": "Competitive GST-WW pulldown of 32P-AICD", "type": "binding", "details": "increasing amounts of phosphopeptide", "procedure": "For competitive binding assays, synthetic peptides, APPtide (EVDAAVp[…] (SEQ ID NO: 13), and its non-phosphorylated counterpart, were synthesized and purchased from Merck Co. The accuracy and purity were identified by mass spectroscopy. APPtide was dissolved in the binding buffer described in Lu et al., “A Function of WW Domains as Phosphoserine- or Phosphothreonine-binding Modules,” Science 283:1325-1328 (1999), which is hereby incorporated by reference in its entirety, and added into the GST pull down reaction for the competitive binding assay (Lu et al., “A Function of WW Domains as Phosphoserine- or Phosphothreonine-binding Modules,” Science 283:1325-1328 (1999), which is hereby incorporated by reference in its entirety).\nTo identify the Pin1-binding site in APP, alanine was substituted for Thr668, the only Thr/Ser-Pro motif in the APP intracellular domain (“AICD”). […] AICD, but not AICD^T668A, was phosphorylated by Cdc2 (Suzuki et al., “Cell Cycle-dependent Regulation of the Phosphorylation and Metabolism of the Alzheimer Amyloid Precursor Protein,” Embo J 13(5): 1114-22 (1994), which is hereby incorporated by reference in its entirety)."}, "[1]": {"target": "T2, pThr668-Pro motif in APP (21-residue phosphopeptide G659-Q679 of APP) (Homo sapiens, UniProt P05067)", "T2 construct": "isomerization of the pThr668-Pro bond in a 21-residue phosphopeptide (G659-Q679 of APP); made in house; host or cells: peptide chemically synthesized; Pin1 recombinant (bacteria, as said in general terms)", "experiment": "NMR (ROESY) analysis of Pin1-catalyzed cis/trans isomerization of the pThr668-Pro bond", "type": "biochemical", "experimental": "All experiments were recorded at 25° C. on a Varian Inova 600 MHz spectrometer with the ^1H carrier set on water. ROESY data sets were acquired with spectral widths of 6 kHz (8 kHz) in t1 (t2) and 640 (2048) complex data points, and were processed as described in Ramelot & Nicholson, “Phosphorylation-induced Structural Changes in the Amyloid Precursor Protein Cytoplasmic Tail Detected by NMR,” J Mol Biol 307(3):871-84 (2001), which is hereby incorporated by reference in its entirety. Peak intensities were obtained using Pipp (Garrett et al., “A Common-sense Approach to Peak-picking in 2-Dimensional, 3-Dimensional, and 4-Dimensional Spectra Using Automatic Computer-analysis of Contour Diagrams,” J Magn Reson 95:214-20 (1991), which is hereby incorporated by reference in its entirety), and curve fits and error analyses were performed using SigmaPlot (Systat Software, Inc.). […] Ict/Icc=kct^cat[exp(kextm)−1]/[ktc^catexp(kextm)+kct^cat] Itc/Itt=ktc^cat[exp(kextm)−1]/[kct^catexp(kextm)+ktc^cat] where kex=kct^cat+ktc^cat, and tm corresponds to the ROESY mixing time. The desired rate constants were extracted by recording ROESY spectra with different mixing times and fitting the intensity ratios obtained to the above equations. ^15N—^1H HSQC data sets were acquired with spectral widths of 1.4 kHz (10 kHz) in t1 (t2) and 512 (2048) complex data points, and were processed as described in Ramelot & Nicholson, “Phosphorylation-induced Structural Changes in the Amyloid Precursor Protein Cytoplasmic Tail Detected by NMR,” J Mol Biol 307(3):871-84 (2001), which is hereby incorporated by reference in its entirety.\nIn the ROESY spectrum, the intensities of exchange and diagonal peaks for a two-state isomerization reaction explicitly depend on the forward (“kct^cat”) and backward (“ktc^cat”) rate constants (FIG. 5B), and on the mixing time (“tm”)."}, "CHO-APP cells": {"system": "CHO-APP cells", "experiment": "Total Aβ secretion (ELISA) after Pin1 overexpression in CHO-APP cells", "type": "cell-based, Chinese hamster", "details": "asynchronous or mitotic cells"}, "CHO cells": {"system": "CHO cells", "experiment": "Total Aβ secretion (ELISA) after co-transfection of Pin1 and APP751 in CHO cells", "type": "cell-based, Chinese hamster", "details": "Pin1 overexpression with APP751, asynchronous or mitotic cells"}, "APP": {"target": "T3, APP (Homo sapiens, UniProt P05067, T743A)", "T3 construct": "expressed in transfected cells; host or cells: N18 neuroblastoma cells transfected with HA-APP (from APP/pCMV)", "experiment": "GST-Pin1 pulldown of APP and its mutants", "type": "binding", "details": "expressed in mitotic cells"}, "[2]": {"details": "linear sequence; cited from earlier work"}, "[3]": {"experiment": "NMR (2D 1H-1H TOCSY and 1D 31P) determination of cis and trans populations of phosphopeptide", "type": "physicochemical", "details": "pThr-Pro bond, NMR on reaction mixture", "text": "The cis conformation of the pThr-Pro motif in AICD is unique from the trans isomer in that it is stabilized by different hydrogen bonds, and it is more extended in backbone conformation, aside from the kink of the cis peptide bond (Ramelot & Nicholson, “Phosphorylation-induced Structural Changes in the Amyloid Precursor Protein Cytoplasmic Tail Detected by NMR,” J Mol Biol 307(3):871-84 (2001), which is hereby incorporated by reference in its entirety). It was hypothesized that the cis conformation could be stabilized by formation of a covalent bond between V667 NH and E670 COO— (hydrogen bonded in the NMR structure), thereby stabilizing the cis isomer relative to the trans. A 6-residue phosphopeptide corresponding to APP residues V667-R72 ([NH2]-V-pT-P-E-E-R-resin (SEQ ID NO: 1)) was commercially synthesized with an orthogonal blocking group on E4 (Tufts Core Facility), and sent on the resin. […] The spectra show two cis populations that most likely reflect different hydrogen bond geometries adopted in the cis isomer (Ramelot & Nicholson, “Phosphorylation-induced Structural Changes in the Amyloid Precursor Protein Cytoplasmic Tail Detected by NMR,” J Mol Biol 307(3):871-84 (2001), which is hereby incorporated by reference in its entirety)."}, "WW domain of Pin1": {"target": "WW domain of Pin1 (Homo sapiens, UniProt Q13526)", "sequence (Q13526 5-39 limits assumed)": "as above", "experiment": "15N-1H HSQC titration of {15N}-WW with peptide", "type": "binding", "details": "relative to linear pAICD", "procedure": "The pThr668-Pro peptides were synthesized, purified, and analyzed as reported in (Ramelot & Nicholson, “Phosphorylation-induced Structural Changes in the Amyloid Precursor Protein Cytoplasmic Tail Detected by NMR,” J Mol Biol 307(3):871-84 (2001), which is hereby incorporated by reference in its entirety). […] For ^15N—^1H HSQC experiments, ^15N-E670-pT668 peptide was dissolved in the same buffer adjusted to pH 6.7, with subsequent addition of an equimolar amount of the WW domain (0.2 mM). All experiments were recorded at 25° C. on a Varian Inova 600 MHz spectrometer with the ^1H carrier set on water. ROESY data sets were acquired with spectral widths of 6 kHz (8 kHz) in t1 (t2) and 640 (2048) complex data points, and were processed as described in Ramelot & Nicholson, “Phosphorylation-induced Structural Changes in the Amyloid Precursor Protein Cytoplasmic Tail Detected by NMR,” J Mol Biol 307(3):871-84 (2001), which is hereby incorporated by reference in its entirety. […]\nNatural abundance peptide (either the linear or cyclic pAICD peptide) was incrementally added to {^15N}-WW and peak shifts were monitored via ^15N—^1H HSQC spectra."}}, "note": "Bridge positions count the residues as written; N and C are the ends. Square brackets hold non-standard residues; d marks the D form. Ends that are not written are not given here. pT = C[C@@H](OP(=O)(O)O)[C@H](N)C(=O)O; resin = not defined here", "data": [{"substance": "EVDAAVpTPEERHLS (SEQ ID NO: 13) (EVDAAV[pT]PEERHLS) [pThr668-containing APP peptide]", "values": [{"measurement": "competition of 32P-AICD binding to GST-WW", "setting": "Pin1 WW domain", "value": "effectively competed"}]}, {"substance": "Pin1: peptidyl-prolyl isomerase that specifically isomerizes pSer/Thr-Pro bonds; GenBank Accession No. U49070", "values": [{"measurement": "difference between kct^cat and ktc^cat rates", "setting": "[1]", "value": 10, "unit": "fold"}, {"measurement": "acceleration of pThr668-Pro isomerization rate over typical uncatalyzed isomerization rates for pThr-Pro peptides", "setting": "[1]; 3 mM peptide, 0.05 mM Pin1, 25° C.", "value": "several orders of magnitude"}, {"measurement": "ROESY exchange cross peaks (E670-HN cis/trans)", "setting": "[1]; catalytic amount of enzyme, 60:1 peptide:enzyme", "value": "exchange cross peaks were observed"}, {"measurement": "average lifetime of the cis isomeric state", "setting": "[1]; in presence of Pin1", "value": "~0.05", "unit": "s"}, {"measurement": "average lifetime of the trans isomeric state", "setting": "[1]; in presence of Pin1", "value": "~0.5", "unit": "s"}, {"measurement": "acceleration of isomerization of the phosphorylated Thr668-Pro motif in APP", "setting": "[1]; visualized by NMR", "value": "over 1000 fold"}, {"measurement": "Aβ secretion", "setting": "CHO-APP cells", "value": "significantly reduced"}, {"measurement": "Aβ secretion", "setting": "CHO cells", "value": "significantly reduced"}, {"measurement": "binding to APP^T668A mutant", "setting": "APP", "value": "failed to bind"}]}, {"substance": "[NH2]-V-pT-P-E-E-R-resin (SEQ ID NO: 1) (H-V[pT]PEER-resin; not fully specified; printed as [NH2]-V-pT-P-E-E-R-resin; reading uncertain) [6-residue phosphopeptide, linear phosphopeptide corresponding to APP residues V667-R72]", "values": [{"measurement": "cis conformation", "setting": "[2]", "value": 10, "unit": "%"}, {"measurement": "trans conformation", "setting": "[2]", "value": 90, "unit": "%"}]}, {"substance": "cyclic pAICD: VpTPEER (SEQ ID NO: 1) phosphopeptide cyclized by covalent bond between V667 NH and E670 COO- (V[pT]PEER; lactam N-4)", "values": [{"measurement": "cis population", "setting": "[3]", "value": "~30", "unit": "%"}, {"measurement": "trans population", "setting": "[3]", "value": 70, "unit": "%"}, {"measurement": "WW domain peak shifts upon saturation with peptide", "setting": "WW domain of Pin1", "value": "smaller peak shifts"}]}]}
